Experimental data from US20260275317A1, “CHIMERIC ENDOLYSINS WITH ACTIVITY AGAINST STREPTOCOCCI AND STAPHYLOCOCCI” (UNIVERSITEIT GENT, priority 2023, published 2026).

Legend:
[1] = tested on: stationary phase S. uberis; assay: Time killing assay (TKA), S. uberis; assay type: cell-based, Streptococcus uberis; settings: 0.3 μM; for ΔLog10 (CFU/mL): 1 h
Description: Concerning the time killing assay, an overnight bacterial culture was diluted 1:10 for S. uberis, S. agalactiae-& dysgalactiae or 1:100 for S. aureus in PBS or UHT-pasteurized whole cow's milk. […] Finally, these fractions were serially diluted 1:10 in PBS. 5 μL of each fraction was spotted on TSA or BHI-agar and incubated overnight at 37° C. The following day, colony forming units (CFU) were counted and converted to CFU/mL to calculate logarithmic reductions in comparison with the negative control. The relative scores were calculated by dividing the observed logarithmic reduction for each endolysin by the maximal reduction observed for that specific condition and strain. Next, this value was divided by the number of conditions and strains tested (i.e., 8=4 bacterial strains×2 conditions (PBS/UHT-milk)). As such, the best performing candidate in each individual assay received a score of 0.125 (=(1/1)/8). […] Turbidity reduction assays were performed by combining 100 μL of overnight grown bacterial cells with an equal volume of purified enzyme at the desired concentration. Bacterial cells were washed with PBS and resuspended in a 1:1 ratio with enzyme to an OD600 of approximately 1.0. Next, the OD600 was measured using a Tecan infinite 200 PRO plate reader (Tecan, Switzerland) every 15 seconds at 37° C., shaking the 96-well plate between each measurement.
(§1) Time killing and turbidity reduction assays were performed as previously described in 1.3.1.
Time killing assays were performed as previously described in 1.3.1.

[2] = tested on: stationary phase S. uberis; assay: Turbidity reduction assay (TRA), S. uberis; assay type: cell-based, Streptococcus uberis; settings: 0.3 μM
Description: (§2) Concerning the time killing assay, an overnight bacterial culture was diluted 1:10 for S. uberis, S. agalactiae-& dysgalactiae or 1:100 for S. aureus in PBS or UHT-pasteurized whole cow's milk. A volume of 10 μL thereof was combined with an equal amount of chimeric endolysin in PBS (or only PBS as negative control) in triplicate and incubated in a covered 96-well microtiter plate at 37° C. for 2 h. The dose was low (i.e. 0.25 μM), but this was chosen to differentiate between less and better performing variants, consequently allowing a ranking. Finally, these fractions were serially diluted 1:10 in PBS. 5 μL of each fraction was spotted on TSA or BHI-agar and incubated overnight at 37° C. The following day, colony forming units (CFU) were counted and converted to CFU/mL to calculate logarithmic reductions in comparison with the negative control. The relative scores were calculated by dividing the observed logarithmic reduction for each endolysin by the maximal reduction observed for that specific condition and strain. Next, this value was divided by the number of conditions and strains tested (i.e., 8=4 bacterial strains×2 conditions (PBS/UHT-milk)). As such, the best performing candidate in each individual assay received a score of 0.125 (=(1/1)/8). […] Turbidity reduction assays were performed by combining 100 μL of overnight grown bacterial cells with an equal volume of purified enzyme at the desired concentration. Bacterial cells were washed with PBS and resuspended in a 1:1 ratio with enzyme to an OD600 of approximately 1.0. Next, the OD600 was measured using a Tecan infinite 200 PRO plate reader (Tecan, Switzerland) every 15 seconds at 37° C., shaking the 96-well plate between each measurement.
as §1

S. aureus = assay: TRA and TKA against S. aureus mastitis isolates; assay type: cell-based, Staphylococcus aureus; settings: S. aureus (sub)clinical isolates
Description: Concerning the time killing assay, an overnight bacterial culture was diluted 1:10 for S. uberis, S. agalactiae-& dysgalactiae or 1:100 for S. aureus in PBS or UHT-pasteurized whole cow's milk. A volume of 10 μL thereof was combined with an equal amount of chimeric endolysin in PBS (or only PBS as negative control) in triplicate and incubated in a covered 96-well microtiter plate at 37° C. for 2 h. The dose was low (i.e. 0.25 μM), but this was chosen to differentiate between less and better performing variants, consequently allowing a ranking. Finally, these fractions were serially diluted 1:10 in PBS. 5 μL of each fraction was spotted on TSA or BHI-agar and incubated overnight at 37° C. The following day, colony forming units (CFU) were counted and converted to CFU/mL to calculate logarithmic reductions in comparison with the negative control. The relative scores were calculated by dividing the observed logarithmic reduction for each endolysin by the maximal reduction observed for that specific condition and strain. Next, this value was divided by the number of conditions and strains tested (i.e., 8=4 bacterial strains×2 conditions (PBS/UHT-milk)). […] Next, the OD600 was measured using a Tecan infinite 200 PRO plate reader (Tecan, Switzerland) every 15 seconds at 37° C., shaking the 96-well plate between each measurement. […]

[3] = tested on: S. uberis, S. aureus, S. agalactiae and S. dysgalactiae; assay: 2 h time killing assay in PBS and UHT-milk, relative in vitro scoring; assay type: cell-based; settings: 0.25 μM
Description: as §2, with “The dose was low (i.e. 0.25 μM), but this was chosen to differentiate between less and better performing variants, consequently allowing a ranking.” left out
Stationary phase S. uberis 0140J or S. aureus N305 and one randomly chosen clinical isolate of S. uberis, S. aureus, S. agalactiae and S. dysgalactiae were challenged with a final concentration of 0.25 μM endolysin in a 2 h time killing assay (TKA) in both phosphate buffered saline (PBS) and ultra-high temperature pasteurized whole cow's milk (UHT-milk).

[4] = Clinical S. uberis 1 (Unknown ST and GCC)
[5] = Clinical S. uberis 2 (Unknown ST, GCC 5)
[6] = Clinical S. uberis 3 (Unknown ST, GCC 5)
[7] = Clinical S. uberis 4 (ST 815, GCC 143)
[8] = Clinical S. uberis 5 (ST 944, GCC 5)
[9] = Subclinical S. uberis 1 (ST 808, GCC 143)
[10] = Subclinical S. uberis 2 (Unknown ST and GCC)
[11] = Subclinical S. uberis 3 (Unknown ST, GCC 5)
[12] = Subclinical S. uberis 4 (Unknown ST and GCC)

B1: NC2: chimeric endolysin SEQ ID NO: 14; CPP + PlySs2 CHAP + PlySs2 SH3_5 + PlySs9 amidase_3 (protein)
chain: MRRRRRRRRGATTVNEALNNVRAQVGSGVSVGNGECYALASWYERMISPDATVGLGAGVGWVSGAIGDTISAKNIGSSYNWQANGWTVSTSGPFKAGQIVTLGATPGNPYGHVVIVEAVDGDRLTILEQNYGGKRYPVRNYYSAASYRQQVVHYITPPGTVAQSAPNLAGAGSRSYRETGTMTVTVDALNVRRAPNTSGEIVAVYKRGESFDYDTVIIDVNGYVWVSYIGGSGKRNYVATGATKDGKRFGNAWGTFKGSGKHLVICGHGQGRTGYDPGAVNAKLGITEAGKVRELSKLMSKYSGQQIDFITEQNVYDYRSITSIGKGYDSITELHFNAFNGSAKGTEVLIQSSLEADKEDMAILSLLSRYFQNRGIKKVDWLYNANQAASRGYTYRLVEIAFIDNEQDMAIFENKKEDIAKGLVSAITGVEVKTIVPSPPSSTVGSSGTPSKSIYLVGDSLRVLPHATHYQTGQKIANWVKGRTYKILQVKNVHQSNSKRAYLLDGIKSWVLEQDVEGTTKGHSKYHHHHHH
ΔLog10 (CFU/mL) [1, 4]: 0.00 Log10 (CFU/mL)
ΔLog10 (CFU/mL) [1, 5]: 4.16 Log10 (CFU/mL)
ΔLog10 (CFU/mL) [1, 6]: 1.66 Log10 (CFU/mL)
ΔLog10 (CFU/mL) [1, 7]: 0.01 Log10 (CFU/mL)
ΔLog10 (CFU/mL) [1, 8]: 0.86 Log10 (CFU/mL)
Δ log10 ([1]; S. uberis 0140J): 0.90±0.03 log10
ΔLog10 (CFU/mL) [1, 9]: 2.84 Log10 (CFU/mL)
ΔLog10 (CFU/mL) [1, 10]: 1.02 Log10 (CFU/mL)
ΔLog10 (CFU/mL) [1, 11]: 1.31 Log10 (CFU/mL)
ΔLog10 (CFU/mL) [1, 12]: 2.84 Log10 (CFU/mL)
lysis speed (ΔOD600/min)/μM [2, 4]: 0.03 (ΔOD600/min)/μM
ΔOD600 ([2]; Clinical S. uberis 1 (Unknown ST and GCC), 1 h): 0.32
lysis speed (ΔOD600/min)/μM [2, 5]: 0.08 (ΔOD600/min)/μM
ΔOD600 ([2]; Clinical S. uberis 2 (Unknown ST, GCC 5), 1 h): 0.54
lysis speed (ΔOD600/min)/μM [2, 6]: 0.22 (ΔOD600/min)/μM
ΔOD600 ([2]; Clinical S. uberis 3 (Unknown ST, GCC 5), 1 h): 0.72
lysis speed (ΔOD600/min)/μM [2, 7]: 0.04 (ΔOD600/min)/μM
ΔOD600 ([2]; Clinical S. uberis 4 (ST 815, GCC 143), 1 h): 0.30
lysis speed (ΔOD600/min)/μM [2, 8]: 0.12 (ΔOD600/min)/μM
ΔOD600 ([2]; Clinical S. uberis 5 (ST 944, GCC 5), 1 h): 0.63
ΔOD600 ([2]; S. uberis 0140J): 0.53±0.01
lysis speed (ΔOD600/min)/μM [2, 9]: 0.18 (ΔOD600/min)/μM
ΔOD600 ([2]; Subclinical S. uberis 1 (ST 808, GCC 143), 1 h): 0.65
lysis speed (ΔOD600/min)/μM [2, 10]: 0.06 (ΔOD600/min)/μM
ΔOD600 ([2]; Subclinical S. uberis 2 (Unknown ST and GCC), 1 h): 0.59
lysis speed (ΔOD600/min)/μM [2, 11]: 0.18 (ΔOD600/min)/μM
ΔOD600 ([2]; Subclinical S. uberis 3 (Unknown ST, GCC 5), 1 h): 0.67
lysis speed (ΔOD600/min)/μM [2, 12]: 0.15 (ΔOD600/min)/μM
ΔOD600 ([2]; Subclinical S. uberis 4 (Unknown ST and GCC), 1 h): 0.66
enzymatic (ΔOD600) and killing (Δ log10) activity, NC2 pairwise versus NC5 (S. aureus): significantly (p<0.001) improved enzymatic (i.e., ΔOD600) and killing (i.e., Δ log10) activity
ranking by cumulative relative in vitro score [3]: overall best performing candidates

B2: NC8: chimeric endolysin SEQ ID NO: 20; CPP + PlySs2 CHAP + Ply1081 CW_7 + PlySs9 amidase_3 (protein)
chain: MRQIKWFQNRRMKWKKGATTVNEALNNVRAQVGSGVSVGNGECYALASWYERMISPDATVGLGAGVGWVSGAIGDTISAKNIGSSYNWQANGWTVSTSGPFKAGQIVTLGATPGNPYGHVVIVEAVDGDRLTILEQNYGGKRYPVRNYYSAASYRQQVVHYITPPGTVAQSAPNLAGAGIDQLVQETLAGKYGNGEQRKAALGSQYQAVMAVINGKATAPKKTVDQLAQEVIQGKHGNGEDRKKSLGPDYDAVQKRVTEILKGSPSGNIPKTPSDAPKSEVVNSSTEPKTEETGANGKATDTKITKGSGKHLVICGHGQGRTGYDPGAVNAKLGITEAGKVRELSKLMSKYSGQQIDFITEQNVYDYRSITSIGKGYDSITELHFNAFNGSAKGTEVLIQSSLEADKEDMAILSLLSRYFQNRGIKKVDWLYNANQAASRGYTYRLVEIAFIDNEQDMAIFENKKEDIAKGLVSAITGVEVKTIVPSPPSSTVGSSGTPSKSIYLVGDSLRVLPHATHYQTGQKIANWVKGRTYKILQVKNVHQSNSKRAYLLDGIKSWVLEQDVEGTTKGHSKYHHHHHH
ranking by cumulative relative in vitro score [3]: overall best performing candidates

B3: NC3: chimeric endolysin SEQ ID NO: 15; CPP + PlySs2 CHAP + Ply1081 CW_7 + PlySs9 amidase_3 (protein)
chain: MGFGCNGPWNEDDLRCRNHCKSIKGYKGGYCAKGGFVCKCYGATTVNEALNNVRAQVGSGVSVGNGECYALASWYERMISPDATVGLGAGVGWVSGAIGDTISAKNIGSSYNWQANGWTVSTSGPFKAGQIVTLGATPGNPYGHVVIVEAVDGDRLTILEQNYGGKRYPVRNYYSAASYRQQVVHYITPPGTVAQSAPNLAGAGIDQLVQETLAGKYGNGEQRKAALGSQYQAVMAVINGKATAPKKTVDQLAQEVIQGKHGNGEDRKKSLGPDYDAVQKRVTEILKGSPSGNIPKTPSDAPKSEVVNSSTEPKTEETGANGKATDTKITKGSGKHLVICGHGQGRTGYDPGAVNAKLGITEAGKVRELSKLMSKYSGQQIDFITEQNVYDYRSITSIGKGYDSITELHFNAFNGSAKGTEVLIQSSLEADKEDMAILSLLSRYFQNRGIKKVDWLYNANQAASRGYTYRLVEIAFIDNEQDMAIFENKKEDIAKGLVSAITGVEVKTIVPSPPSSTVGSSGTPSKSIYLVGDSLRVLPHATHYQTGQKIANWVKGRTYKILQVKNVHQSNSKRAYLLDGIKSWVLEQDVEGTTKGHSKYHHHHHH
ranking by cumulative relative in vitro score [3]: overall best performing candidates
